Data as given in paper PMC7299630.

B1: MAGT1 RNA duplex probe (structured_RNA)
RNA: GCUAAUUUUUGUGUUUUUAGUAGAGACCUCGAGGUCUCUACUAAAAAUAUGAAAAUUAGC
B2: HTR2C RNA duplex probe (structured_RNA)
RNA: AUCAUGCACCUCUGCGCUAUAUCGCUGGAUCGGUAUGUAGCAAUACGUAAUCCUAUUGAGCAUAGCCGUUUCAAUUCGCGGACUAAGGCCAUCAUGAAGAUUGCUAUUGUUUGGGCAAUUUCUAUAGGUAAAUAAAACUUUUUGGCCAUAAGAAUUGCAGCGGCUAUGCUCAAUACUUUCGGAUUAUGUACUGUGAACAACGUACAGACGUCGACUGGUAACAUUUGCGUUUGAUCGGGUUCU

Biological target: DAP3-GST (UniProt P51398 1-398)
Test: EMSA

Row | Binder | binding result
1 | B1 | no binding
2 | B2 | no binding
